Experimental data as given in patent publication US20210087286A1 (Amgen, published 2021).

Legend:
human GIPR = target: T1, human GIPR (human, UniProt P48546 22-466); test: cell-based or functional assay
T1 sequence: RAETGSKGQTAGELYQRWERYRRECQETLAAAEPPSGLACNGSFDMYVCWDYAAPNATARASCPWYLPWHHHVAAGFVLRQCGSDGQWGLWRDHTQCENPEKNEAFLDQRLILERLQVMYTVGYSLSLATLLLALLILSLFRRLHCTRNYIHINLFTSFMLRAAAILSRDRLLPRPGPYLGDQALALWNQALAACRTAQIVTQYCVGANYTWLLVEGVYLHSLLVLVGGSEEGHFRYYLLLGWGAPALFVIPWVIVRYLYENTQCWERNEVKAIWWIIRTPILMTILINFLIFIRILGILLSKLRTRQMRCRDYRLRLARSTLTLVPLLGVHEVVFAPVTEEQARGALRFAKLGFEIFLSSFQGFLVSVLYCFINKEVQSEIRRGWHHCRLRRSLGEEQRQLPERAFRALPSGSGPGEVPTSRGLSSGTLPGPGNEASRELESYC

huGIPR ECD = target: T2, huGIPR ECD (human, UniProt P48546 21-129, limits assumed); test: SPR (Biacore T200), mAb captured via goat anti-huFc, 200 nM huGIPR ECD analyte
T2 construct: Soluble analyte of the Biacore assay; also called human GIPR extracellular domain
T2 sequence: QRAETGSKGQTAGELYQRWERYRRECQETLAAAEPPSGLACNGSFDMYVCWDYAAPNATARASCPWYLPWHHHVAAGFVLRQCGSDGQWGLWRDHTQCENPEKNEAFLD
Procedure: Immobilization of Goat-anti-huFc antibody to a S-CM5 sensor chip surface was performed according to manufacturer's instructions. The Biacore instrument running buffer is 0.005% P20/PBS 1×, pH7.4, no calcium chloride, no magnesium chloride. Briefly, carboxyl groups on the sensor chip surfaces were activated by injecting 60 μL of a mixture containing 0.2 M N-ethyl-N′-(dimethylaminopropyl) carbodiimide (EDC) and 0.05 M N-hydroxysuccinimide (NHS). Goat-anti-huFc antibody was diluted in 10 mM sodium acetate, pH 4.0 at 20 μg/ml and injected over the activated chip surface at 30 uL/min for 6 minutes. Excess reactive groups on the surfaces were deactivated by injecting 60 μL of 1 M ethanolamine. Final immobilized level was ˜8000 resonance units (RU).
Binding assays were carried out on the immobilized goat anti-huFc antibody surface by Biacore T200. The experiment was performed at 25° C. The instrument running buffer was 0.005% P20/PBS. The goat anti-huFc capture antibody was covalently attached to the sensor chip surface via standard amine coupling to flow cells channel 1-4. The anti-huGIPR antibodies were diluted in sample buffer (0.1 mg/ml BSA, 0.005% P20, PBS) to ˜10 nM then captured to flow cells channel 2, 3, 4. Flow cell channel 1 was as a blank reference surface without injection of anti-huGIPR antibody. The captured antibody response range was ˜250 RU. Then 200 nM huGIPR ECD was injected over the goat anti-huFc antibody captured anti-huGIPR antibody surfaces at flow rate 50 ul/min for 3 minutes. After a 10 minutes dissociation, each surface was regenerated by injecting 10 mM Glycine, pH 1.5 for 30 seconds twice.

B1: 2G10.316 (antibody, human IgG1, kappa, N297G, V domains shown)
VH: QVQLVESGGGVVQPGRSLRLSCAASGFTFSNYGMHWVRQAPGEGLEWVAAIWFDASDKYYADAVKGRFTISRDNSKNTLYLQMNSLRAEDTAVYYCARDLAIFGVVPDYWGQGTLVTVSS
VL: EIVMTQSPATLSVSPGERATLSCRASQSVFRHLAWYQQKPGQAPRLLIYEAATRATGIPARFSGSGSGTEFTLTISSLQSEDFAVYYCQQYQNWPLTFGGGTKVEIKR
notes: also called SS-26193
cAMP IC50 (human GIPR): 0.0147 µM
koff (huGIPR ECD): < 5e-05 s⁻¹

B2: 2G10.309 (antibody, human IgG1, kappa, N297G, V domains shown)
VH: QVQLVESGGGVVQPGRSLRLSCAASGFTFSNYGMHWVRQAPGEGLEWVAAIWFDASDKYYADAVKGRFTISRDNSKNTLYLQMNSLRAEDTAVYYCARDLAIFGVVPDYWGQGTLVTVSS
VL: EIVMTQSPATLSVSPGERATLSCRASQSVERHLAWYQQKPGQAPRLLIYEAATRATGIPARFSGSGSGTEFTLTISSLQSEDFAVYYCQQYQNWPLTFGGGTKVEIKR
notes: also called SS-26186
cAMP IC50 (human GIPR): 0.0295 µM
koff (huGIPR ECD): < 5e-05 s⁻¹

B3: 2G10.326 (antibody, human IgG1, kappa, N297G, V domains shown)
VH: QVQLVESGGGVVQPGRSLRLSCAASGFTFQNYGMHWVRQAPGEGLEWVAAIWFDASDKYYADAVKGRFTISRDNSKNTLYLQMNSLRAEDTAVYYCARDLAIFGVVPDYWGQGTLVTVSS
VL: EIVMTQSPATLSVSPGERATLSCRASQSVLSHLAWYQQKPGQAPRLLIYEAATRATGIPARFSGSGSGTEFTLTISSLQSEDFAVYYCQQYQQWPLTFGGGTKVEIKR
cAMP IC50 (human GIPR): 0.0266 µM
koff (huGIPR ECD): 6e-05 s⁻¹

B4: 2G10.302 (antibody, human IgG1, kappa, N297G, V domains shown)
VH: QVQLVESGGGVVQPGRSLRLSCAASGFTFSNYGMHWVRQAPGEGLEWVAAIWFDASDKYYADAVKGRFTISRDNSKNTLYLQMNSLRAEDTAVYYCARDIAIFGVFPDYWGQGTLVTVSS
VL: EIVMTQSPATLSVSPGERATLSCRASQSVFEHLAWYQQKPGQAPRLLIYEAATRATGIPARFSGSGSGTEFTLTISSLQSEDFAVYYCQQYNNWPLTFGGGTKVEIKR
notes: also called SS-26179
cAMP IC50 (human GIPR): 0.0199 µM
koff (huGIPR ECD): < 5e-05 s⁻¹

B5: 2G10.304 (antibody, human IgG1, kappa, N297G, V domains shown)
VH: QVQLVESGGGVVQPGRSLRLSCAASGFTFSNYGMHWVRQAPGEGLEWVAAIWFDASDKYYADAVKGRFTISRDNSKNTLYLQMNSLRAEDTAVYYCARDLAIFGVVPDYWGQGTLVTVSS
VL: EIVMTQSPATLSVSPGERATLSCRASQSVNRHLAWYQQKPGQAPRLLIYEAATRATGIPARFSGSGSGTEFTLTISSLQSEDFAVYYCQQYQNWPLTFGGGTKVEIKR
notes: also called SS-26181
cAMP IC50 (human GIPR): 0.0169 µM
koff (huGIPR ECD): < 5e-05 s⁻¹

B6: 2G10.323 (antibody, human IgG1, kappa, N297G, V domains shown)
VH: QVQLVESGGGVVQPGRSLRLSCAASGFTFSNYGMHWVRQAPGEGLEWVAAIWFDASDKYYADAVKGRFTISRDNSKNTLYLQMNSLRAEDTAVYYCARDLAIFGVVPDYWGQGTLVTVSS
VL: EIVMTQSPATLSVSPGERATLSCRASQSVHRHLAWYQQKPGQAPRLLIYEAATRATGIPARFSGSGSGTEFTLTISSLQSEDFAVYYCQQYQNWPLTFGGGTKVEIKR
cAMP IC50 (human GIPR): 0.0175 µM
koff (huGIPR ECD): < 5e-05 s⁻¹

B7: 2G10.301 (antibody, human IgG1, kappa, N297G, V domains shown)
VH: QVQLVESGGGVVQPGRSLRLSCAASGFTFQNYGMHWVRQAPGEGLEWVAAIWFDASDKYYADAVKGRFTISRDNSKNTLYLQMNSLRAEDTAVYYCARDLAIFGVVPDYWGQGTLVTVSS
VL: EIVMTQSPATLSVSPGERATLSCRASQSVFSHLAWYQQKPGQAPRLLIYEAATRATGIPARFSGSGSGTEFTLTISSLQSEDFAVYYCQQYQNWPLTFGGGTKVEIKR
notes: also called SS-26178
cAMP IC50 (human GIPR): 0.0176 µM
koff (huGIPR ECD): 7e-05 s⁻¹

B8: 2G10.318 (antibody, human IgG1, kappa, N297G, V domains shown)
VH: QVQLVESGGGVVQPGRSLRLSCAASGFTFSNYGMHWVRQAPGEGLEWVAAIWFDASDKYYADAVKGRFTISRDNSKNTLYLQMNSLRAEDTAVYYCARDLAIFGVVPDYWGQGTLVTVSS
VL: EIVMTQSPATLSVSPGERATLSCRASQSVLSHLAWYQQKPGQAPRLLIYEAATRATGIPARFSGSGSGTEFTLTISSLQSEDFAVYYCQQYNNWPLTFGGGTKVEIKR
cAMP IC50 (human GIPR): 0.0209 µM
koff (huGIPR ECD): < 5e-05 s⁻¹

B9: 2G10.303 (antibody, human IgG1, kappa, N297G, V domains shown)
VH: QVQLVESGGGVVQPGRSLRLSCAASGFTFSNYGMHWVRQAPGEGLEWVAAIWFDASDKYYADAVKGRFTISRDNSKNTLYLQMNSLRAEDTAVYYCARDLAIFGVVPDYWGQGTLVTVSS
VL: EIVMTQSPATLSVSPGERATLSCRASQSVDRHLAWYQQKPGQAPRLLIYEAATRATGIPARFSGSGSGTEFTLTISSLQSEDFAVYYCQQYQNWPLTFGGGTKVEIKR
notes: also called SS-26180
cAMP IC50 (human GIPR): 0.0231 µM
koff (huGIPR ECD): 7e-05 s⁻¹

B10: 2G10.307 (antibody, human IgG1, kappa, N297G, V domains shown)
VH: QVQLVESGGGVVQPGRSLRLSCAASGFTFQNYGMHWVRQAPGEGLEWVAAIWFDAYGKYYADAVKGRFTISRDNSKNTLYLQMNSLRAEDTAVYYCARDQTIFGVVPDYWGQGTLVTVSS
VL: EIVMTQSPATLSVSPGERATLSCRASQSVDRHLAWYQQKPGQAPRLLIYEAATRATGIPARFSGSGSGTEFTLTISSLQSEDFAVYYCQQYNQWPLTFGGGTKVEIKR
notes: also called SS-26184
cAMP IC50 (human GIPR): 0.0174 µM
koff (huGIPR ECD): 6e-05 s⁻¹

B11: 2G10.325 (antibody, human IgG1, kappa, N297G, V domains shown)
VH: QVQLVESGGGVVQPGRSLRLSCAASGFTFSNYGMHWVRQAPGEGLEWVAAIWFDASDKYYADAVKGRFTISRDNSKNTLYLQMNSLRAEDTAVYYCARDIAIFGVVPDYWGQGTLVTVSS
VL: EIVMTQSPATLSVSPGERATLSCRASQSVFEHLAWYQQKPGQAPRLLIYEAATRATGIPARFSGSGSGTEFTLTISSLQSEDFAVYYCQQYNQWPLTFGGGTKVEIKR
cAMP IC50 (human GIPR): 0.0262 µM
koff (huGIPR ECD): < 5e-05 s⁻¹

B12: 2G10.324 (antibody, human IgG1, kappa, N297G, V domains shown)
VH: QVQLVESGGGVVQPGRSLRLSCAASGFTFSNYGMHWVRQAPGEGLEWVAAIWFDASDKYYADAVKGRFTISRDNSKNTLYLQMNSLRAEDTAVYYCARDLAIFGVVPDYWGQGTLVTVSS
VL: EIVMTQSPATLSVSPGERATLSCRASQSVLSHLAWYQQKPGQAPRLLIYEAATRATGIPARFSGSGSGTEFTLTISSLQSEDFAVYYCQQYQNWPLTFGGGTKVEIKR
cAMP IC50 (human GIPR): 0.0141 µM
koff (huGIPR ECD): < 5e-05 s⁻¹

B13: 2G10.312 (antibody, human IgG1, kappa, N297G, V domains shown)
VH: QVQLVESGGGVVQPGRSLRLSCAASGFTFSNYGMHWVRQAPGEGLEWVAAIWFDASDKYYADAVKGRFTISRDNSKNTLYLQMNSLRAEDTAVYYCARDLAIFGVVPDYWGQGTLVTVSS
VL: EIVMTQSPATLSVSPGERATLSCRASQSVFEHLAWYQQKPGQAPRLLIYEAATRATGIPARFSGSGSGTEFTLTISSLQSEDFAVYYCQQYNNWPLTFGGGTKVEIKR
notes: also called SS-26189
cAMP IC50 (human GIPR): 0.0232 µM
koff (huGIPR ECD): < 5e-05 s⁻¹

B14: 2G10.306 (antibody, human IgG1, kappa, N297G, V domains shown)
VH: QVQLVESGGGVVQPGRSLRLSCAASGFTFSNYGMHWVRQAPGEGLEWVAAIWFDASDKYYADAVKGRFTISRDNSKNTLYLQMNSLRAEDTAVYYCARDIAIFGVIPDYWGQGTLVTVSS
VL: EIVMTQSPATLSVSPGERATLSCRASQSVLTHLAWYQQKPGQAPRLLIYEAATRATGIPARFSGSGSGTEFTLTISSLQSEDFAVYYCQQYQNWPLTFGGGTKVEIKR
notes: also called SS-26183
cAMP IC50 (human GIPR): 0.0207 µM
koff (huGIPR ECD): < 5e-05 s⁻¹

B15: 2G10.314 (antibody, human IgG1, kappa, N297G, V domains shown)
VH: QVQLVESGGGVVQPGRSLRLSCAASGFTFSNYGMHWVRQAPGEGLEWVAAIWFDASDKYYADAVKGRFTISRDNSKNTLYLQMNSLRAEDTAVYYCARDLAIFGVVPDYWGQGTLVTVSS
VL: EIVMTQSPATLSVSPGERATLSCRASQSVHSHLAWYQQKPGQAPRLLIYEAATRATGIPARFSGSGSGTEFTLTISSLQSEDFAVYYCQQYNNWPLTFGGGTKVEIKR
notes: also called SS-26191
cAMP IC50 (human GIPR): 0.0175 µM
koff (huGIPR ECD): 6e-05 s⁻¹

B16: 2G10.315 (antibody, human IgG1, kappa, N297G, V domains shown)
VH: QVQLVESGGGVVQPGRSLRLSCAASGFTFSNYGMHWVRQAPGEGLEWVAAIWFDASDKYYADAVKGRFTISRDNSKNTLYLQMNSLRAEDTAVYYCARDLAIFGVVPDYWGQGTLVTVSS
VL: EIVMTQSPATLSVSPGERATLSCRASQSVLTHLAWYQQKPGQAPRLLIYEAATRATGIPARFSGSGSGTEFTLTISSLQSEDFAVYYCQQYQNWPLTFGGGTKVEIKR
notes: also called SS-26192
cAMP IC50 (human GIPR): 0.022 µM
koff (huGIPR ECD): < 5e-05 s⁻¹

B17: 2G10.317 (antibody, human IgG1, kappa, N297G, V domains shown)
VH: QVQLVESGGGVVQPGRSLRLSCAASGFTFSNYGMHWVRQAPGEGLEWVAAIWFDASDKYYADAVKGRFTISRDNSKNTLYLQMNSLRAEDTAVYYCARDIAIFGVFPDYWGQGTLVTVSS
VL: EIVMTQSPATLSVSPGERATLSCRASQSVNRHLAWYQQKPGQAPRLLIYEAATRATGIPARFSGSGSGTEFTLTISSLQSEDFAVYYCQQYQQWPLTFGGGTKVEIKR
notes: also called SS-26194
cAMP IC50 (human GIPR): 0.0137 µM
koff (huGIPR ECD): < 5e-05 s⁻¹

B18: 2G10.308 (antibody, human IgG1, kappa, N297G, V domains shown)
VH: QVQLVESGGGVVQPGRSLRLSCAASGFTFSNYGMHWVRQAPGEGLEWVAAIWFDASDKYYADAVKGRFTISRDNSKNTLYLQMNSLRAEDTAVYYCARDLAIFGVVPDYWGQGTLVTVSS
VL: EIVMTQSPATLSVSPGERATLSCRASQSVFSHLAWYQQKPGQAPRLLIYEAATRATGIPARFSGSGSGTEFTLTISSLQSEDFAVYYCQQYQQWPLTFGGGTKVEIKR
notes: also called SS-26185
cAMP IC50 (human GIPR): 0.0183 µM
koff (huGIPR ECD): < 5e-05 s⁻¹

B19: 2G10.319 (antibody, human IgG1, kappa, N297G, V domains shown)
VH: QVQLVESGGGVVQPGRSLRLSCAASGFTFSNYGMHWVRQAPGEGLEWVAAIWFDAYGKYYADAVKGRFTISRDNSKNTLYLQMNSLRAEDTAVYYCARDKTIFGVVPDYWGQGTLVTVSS
VL: EIVMTQSPATLSVSPGERATLSCRASQSVFRHLAWYQQKPGQAPRLLIYEAATRATGIPARFSGSGSGTEFTLTISSLQSEDFAVYYCQQYQNWPLTFGGGTKVEIKR
cAMP IC50 (human GIPR): 0.0079 µM
koff (huGIPR ECD): 6e-05 s⁻¹

B20: 2G10.305 (antibody, human IgG1, kappa, N297G, V domains shown)
VH: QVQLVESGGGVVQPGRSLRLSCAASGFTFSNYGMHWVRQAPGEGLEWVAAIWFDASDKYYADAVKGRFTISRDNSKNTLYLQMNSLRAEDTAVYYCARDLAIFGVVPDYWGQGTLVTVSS
VL: EIVMTQSPATLSVSPGERATLSCRASQSVDVNLAWYQQKPGQAPRLLIYNAATRATGIPARFSGSGSGTEFTLTISSLQSEDFAVYYCQQYQNWPLTFGGGTKVEIKR
notes: also called SS-26182
cAMP IC50 (human GIPR): 0.0272 µM
koff (huGIPR ECD): < 5e-05 s⁻¹

B21: 2G10.311 (antibody, human IgG1, kappa, N297G, V domains shown)
VH: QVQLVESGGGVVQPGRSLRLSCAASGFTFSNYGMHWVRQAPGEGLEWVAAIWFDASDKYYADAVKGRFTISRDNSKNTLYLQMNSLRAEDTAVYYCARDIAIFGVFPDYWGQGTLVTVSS
VL: EIVMTQSPATLSVSPGERATLSCRASQSVNVHLAWYQQKPGQAPRLLIYQAATRATGIPARFSGSGSGTEFTLTISSLQSEDFAVYYCQQYNQWPLTFGGGTKVEIKR
notes: also called SS-26188
cAMP IC50 (human GIPR): 0.0149 µM
koff (huGIPR ECD): 6e-05 s⁻¹

B22: 2G10.313 (antibody, human IgG1, kappa, N297G, V domains shown)
VH: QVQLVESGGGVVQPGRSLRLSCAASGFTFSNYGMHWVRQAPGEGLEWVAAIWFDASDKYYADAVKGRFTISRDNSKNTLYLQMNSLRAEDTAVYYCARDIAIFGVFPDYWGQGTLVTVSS
VL: EIVMTQSPATLSVSPGERATLSCRASQSVDRHLAWYQQKPGQAPRLLIYEAATRATGIPARFSGSGSGTEFTLTISSLQSEDFAVYYCQQYNQWPLTFGGGTKVEIKR
notes: also called SS-26190
cAMP IC50 (human GIPR): 0.0207 µM
koff (huGIPR ECD): < 5e-05 s⁻¹

B23: 2G10.321 (antibody, human IgG1, kappa, N297G, V domains shown)
VH: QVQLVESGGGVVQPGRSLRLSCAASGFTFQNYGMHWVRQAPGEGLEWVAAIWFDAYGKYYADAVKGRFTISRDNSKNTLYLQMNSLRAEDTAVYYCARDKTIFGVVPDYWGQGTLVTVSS
VL: EIVMTQSPATLSVSPGERATLSCRASQSVNRHLAWYQQKPGQAPRLLIYEAATRATGIPARFSGSGSGTEFTLTISSLQSEDFAVYYCQQYNQWPLTFGGGTKVEIKR
cAMP IC50 (human GIPR): 0.00746 µM
koff (huGIPR ECD): < 5e-05 s⁻¹

B24: 2G10.322 (antibody, human IgG1, kappa, N297G, V domains shown)
VH: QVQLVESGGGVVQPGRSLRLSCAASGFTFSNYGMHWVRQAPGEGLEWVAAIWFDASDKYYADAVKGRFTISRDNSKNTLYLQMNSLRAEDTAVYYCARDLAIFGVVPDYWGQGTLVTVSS
VL: EIVMTQSPATLSVSPGERATLSCRASQSVMSHLAWYQQKPGQAPRLLIYEAATRATGIPARFSGSGSGTEFTLTISSLQSEDFAVYYCQQYQNWPLTFGGGTKVEIKR
cAMP IC50 (human GIPR): 0.0179 µM
koff (huGIPR ECD): 6e-05 s⁻¹
